According to patent US20240010723A1 (IBEX BIOSCIENCES, published 2024):

T1: Human CD147 (Uniprot P35613), recombinant protein (UniProt P35613 138-325)
T1 chain: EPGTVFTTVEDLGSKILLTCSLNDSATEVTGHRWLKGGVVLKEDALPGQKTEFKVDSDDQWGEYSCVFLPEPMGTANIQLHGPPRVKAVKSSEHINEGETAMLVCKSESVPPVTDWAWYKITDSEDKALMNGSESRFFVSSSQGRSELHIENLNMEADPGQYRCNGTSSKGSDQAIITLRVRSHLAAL

T2: Human CD147 (Uniprot P35613), recombinant protein (human, UniProt P35613 138-325)
T2 construct: also called recombinant CD147; CD147 protein
T2 sequence: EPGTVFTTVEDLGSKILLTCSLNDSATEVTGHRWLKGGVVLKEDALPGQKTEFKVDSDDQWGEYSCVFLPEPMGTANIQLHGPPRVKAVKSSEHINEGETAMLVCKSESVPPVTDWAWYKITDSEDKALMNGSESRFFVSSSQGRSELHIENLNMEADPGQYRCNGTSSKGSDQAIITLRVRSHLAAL

T3: Murine CD147 (Uniprot P18572), recombinant protein (murine (mouse), UniProt P18572 22-325, limits assumed)
T3 construct: also called mCD147; mouse CD147
T3 sequence: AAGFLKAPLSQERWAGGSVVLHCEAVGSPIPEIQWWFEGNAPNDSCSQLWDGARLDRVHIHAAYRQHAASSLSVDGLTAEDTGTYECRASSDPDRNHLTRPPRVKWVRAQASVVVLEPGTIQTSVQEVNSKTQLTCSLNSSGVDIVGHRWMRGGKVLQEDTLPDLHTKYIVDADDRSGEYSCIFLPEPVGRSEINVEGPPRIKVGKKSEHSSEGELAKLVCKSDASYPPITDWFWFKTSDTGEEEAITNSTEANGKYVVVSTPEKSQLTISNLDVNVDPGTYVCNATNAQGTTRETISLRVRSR


Tests used:
[1] = target: T1, Human CD147 (Uniprot P35613), …; test: SPR
[2] = target: T2, Human CD147 (Uniprot P35613), …; test: SPR sensorgram, partly purified sample injected on a sensor chip; the chip's ligand is not stated
Description: Approximately 45 μl of Ibx-74 and Ibx-75 at various stages of purification were provided; 35 μl of each sample was injected on a sensor chip and sensograms were collected. The flow rate was 10 μ/minute, and the chip was regenerated with 10 mM Glycine at pH 1.5.

[3] = target: T1, Human CD147 (Uniprot P35613), …; test: SPR; kinetic model; Ibx-77 injected over immobilized CD147
[4] = target: T2, Human CD147 (Uniprot P35613), …; test: SPR, CD147 injected as analyte at 0-900 nM, steady state 1:1 fit
Description: (§1) For this assay, CD147 was injected in HBS-EP buffer pH7.4 at concentrations ranging from 0 nM to 900 nM at 10 μl/min for 600 Seconds. Duplicate CD147 injections were carried out for 0, 9.22, […], 23.04, 57.6, 144, 360, 900 nM (a 2.5-fold dilution series). The chip surface was regenerated using 10 mM Glycine pH 2.0 @ 10 μl/min for 180 sec.
(§2) One technical replicate of 0 nm & 23.04 nM was excluded from analysis due to sudden air spikes and DIPs during analyte injection. Data were analyzed in Q-Dat software provided by instrument manufacturer. A steady state 1:1 fitting model (FIG. 4) was used for initial steady state binding analysis, and a simple Kd/Ka kinetic model (FIG. 5) was used to estimate KD.

[5] = target: T2, Human CD147 (Uniprot P35613), …; test: SPR, CD147 injected as analyte at 0-900 nM, kinetic model
Description: as §1, §2

[6] = target: T1, Human CD147 (Uniprot P35613), …; test: SPR; steady state 1:1 fit; Ibx-77 injected over immobilized CD147
[7] = target: T3, Murine CD147 (Uniprot P18572), …; test: ELISA, 100 ng murine CD147 coated, anti-flag detection
Description: For the ELISA, 100 ng of murine CD147 was coated onto Nunc polysorb plates overnight in 1× coating buffer. The wells were washed once with TBST (0.01% tween 20) and then blocked for 1 hour using 1× fishgel in TBST at room temperature (RT). Ibx-11, Ibx-13, Ibx-75, Ibx-76, Ibx-77, and anti-HIS antibody was incubated at 0.01-100 ng/well in 100 μl for 1 hour at RT before being washed 3× for 5 min each wash. The wells were incubated with anti-human for Ibx-11 & Ibx-13 treated wells and with anti-flag for Ibx-77, Ibx-75, Ibx-76 treated wells at 1:1000 dilution for 1 hour RT, and then washed 3× for 5 min each wash. The wells were incubated with 100p/Well of TMBE for 30 minutes and the reaction was stopped with 100p/Well of 2N sulphuric acid. Optical Density (OD) was measured using Biotek synergy 4 instrument for quantification.

Binder	Kd [1]	koff [2]	Kd [3]	Kd [4]	Kd [5]	koff [5]	kon [5]	Kd [6]	binding result [7]
Ibx-77 (dimer of Ibx-14) (VHH, not shown: small tags and cut ends, Tandem bivalent VhH without Fc) QVQLVESGGGLVQAGDSLTLSCAASGRSLSSNAMGWFRQAPGKEREFVSGTTWHAGTQYYAYAADSVKGRFTTSRDNANTVSLQMKRLKPEDTAVYYCAAAVSGPGYDSWGQGTQVTVSSEPKIPQPQPKPQPQPQPQPQPKPQPEPQVQLVESGGGLVQAGDSLTLSCAASGRSLSSNAMGWFRQAPGKEREFVSGTTWHAGTQYYAYAADSVKGRFTTSRDNANTVSLQMKRLKPEDTAVYYCAAAVSGPGYDSWGQGTQVTVSS			0.335 nM	138 nM	36.1 nM	0.000489 s⁻¹	13300 M⁻¹ s⁻¹	10.8 nM	no binding (tested: 0.01-100 ng/well)
Ibx-75 (dimer of Ibx-12) (VHH, Tandem bivalent VhH without Fc; also called tandem bivalent Ibx-75; not shown: Flag tag, since detection was with anti-flag) QVRLVESGGGLVQAGDSLRLSCQASGGTFTTYAMGWFRQAPGQEREFVSATTWSTGTSYYAYAADSVKGRFTTSRDNDNTVTLTMKRLKPDDTAVYYCSADPDGSDWAHSARQLRYWGQGTQVTVSSEPKIPQPQPKPQPQPQPQPQPKPQPEPQVRLVESGGGLVQAGDSLRLSCQASGGTFTTYAMGWFRQAPGQEREFVSATTWSTGTSYYAYAADSVKGRFTTSRDNDNTVTLTMKRLKPDDTAVYYCSADPDGSDWAHSARQLRYWGQGTQVTVSS	0.428 pM	1e-06 s⁻¹							no binding (tested: 0.01-100 ng/well)

The next lines start with the values.

Kd [1]	koff [2]	Kd [3]	Kd [4]	Kd [5]	koff [5]	kon [5]	Kd [6]	binding result [7]	Binder
13.9 pM	3e-05 s⁻¹								Ibx-74 (dimer of Ibx-11) (VHH, Tandem bivalent VhH) QVRLEESGGGLVQAGGSLRLSCAASGLAFSIYGMGWFRQAPGKEREFVSVVDNTGSTTLYADSVKGRFTISRDNAKNTVYLQMSSLEPEDTAVYYCGAGPKNYLGSHEYAYWGQGTQVTVSSEPKIPQPQPKPQPQPQPQPQPKPQPEPQVRLEESGGGLVQAGGSLRLSCAASGLAFSIYGMGWFRQAPGKEREFVSVVDNTGSTTLYADSVKGRFTISRDNAKNTVYLQMSSLEPEDTAVYYCGAGPKNYLGSHEYAYWGQGTQVTVSS
								no binding (tested: 0.01-100 ng/well)	Ibx-76 (dimer of Ibx-13) (VHH, Tandem bivalent VhH without Fc; not shown: Flag tag, since detection was with anti-flag) QVQLVESGGGLVQPGGSLRLSCTASEDTFSTYAIGWFRQAPGQGREFVAGITANGIATRYNDSLKDRFTISRDNAKNTVYLQMNSLQPEDTAVYSCGADTRRFSLPSTVHEIDYWGQGTQVTVSSEPKIPQPQPKPQPQPQPQPQPKPQPEPQVQLVESGGGLVQPGGSLRLSCTASEDTFSTYAIGWFRQAPGQGREFVAGITANGIATRYNDSLKDRFTISRDNAKNTVYLQMNSLQPEDTAVYSCGADTRRFSLPSTVHEIDYWGQGTQVTVSS
